Publication PMC8276798, “High-Level Production of Lysine in the Yeast Saccharomyces cerevisiae by Rational Design of Homocitrate Synthase” (Applied and Environmental Microbiology, 2021)
Positions count from the first letter of the chain named. Names may count otherwise.

B1: homocitrate synthase ScLys20 (wild type) (Saccharomyces cerevisiae S288C) (protein)
chain: MTAAKPNPYAAKPGDYLSNVNNFQLIDSTLREGEQFANAFFDTEKKIEIARALDDFGVDYIELTSPVASEQSRKDCEAICKLGLKAKILTHIRCHMDDAKVAVETGVDGVDVVIGTSKFLRQYSHGKDMNYIAKSAVEVIEFVKSKGIEIRFSSEDSFRSDLVDLLNIYKTVDKIGVNRVGIADTVGCANPRQVYELIRTLKSVVSCDIECHFHNDTGCAIANAYTALEGGARLIDVSVLGIGERNGITPLGGLMARMIVAAPDYVKSKYKLHKIRDIENLVADAVEVNIPFNNPITGFCAFTHKAGIHAKAILANPSTYEILDPHDFGMKRYIHFANRLTGWNAIKARVDQLNLNLTDDQIKEVTAKIKKLGDVRSLNIDDVDSIIKNFHAEVSTPQVLSAKKNKKNDSDVPELATIPAAKRTKPSA
notes: N-terminal His-tagged recombinant ScLys20
B2: homocitrate synthase ScLys20 S385F variant (Saccharomyces cerevisiae S288C; S385F) (protein)
chain: B1 chain with S385F
notes: as for B1
B3: homocitrate synthase ScLys20 S385E variant (Saccharomyces cerevisiae S288C; S385E) (protein)
chain: B1 chain with S385E
notes: as for B1
B4: homocitrate synthase ScLys20 S385L variant (Saccharomyces cerevisiae S288C; S385L) (protein)
chain: B1 chain with S385L

What was measured:
[1] = molecular target: T1, homocitrate synthase ScLys20 (wild type) (Saccharomyces cerevisiae, UniProt P48570); test: DCPIP-coupled HCS activity assay with purified enzyme ([…] 2-OG, […] AcCoA); format: biochemical
T1 construct: gene LYS20; N-terminal His-tagged recombinant ScLys20
T1 sequence (P48570 1-428): B1 chain

[2] = molecular target: T2, homocitrate synthase ScLys20 S385F variant (Saccharomyces cerevisiae, UniProt P48570, S385F); test: as above; format: biochemical
T2 construct: gene LYS20; N-terminal His-tagged recombinant ScLys20
T2 sequence (P48570 1-428 S385F): B1 chain with S385F

[3] = molecular target: T3, homocitrate synthase ScLys20 S385E variant (Saccharomyces cerevisiae, UniProt P48570, S385E); test: as above; format: biochemical
T3 construct: gene LYS20; N-terminal His-tagged recombinant ScLys20
T3 sequence (P48570 1-428 S385E): B1 chain with S385E

purified protein = substrate: O=C(O)CCC(=O)C(=O)O; test: purified protein; details: active center
[4] = substrate: CC(=O)SCCNC(=O)CCNC(=O)[C@H](O)C(C)(C)COP(=O)(O)OP(=O)(O)OC[C@H]1O[C@@H](n2cnc3c(N)ncnc32)[C@H](O)[C@@H]1OP(=O)(O)O; test: steady-state kinetics of purified enzyme, DCPIP assay (apparent Km); format: biochemical, Saccharomyces cerevisiae
[5] = Arg31 interacts with 2-OG (homology model)

| Molecule | IC50 [1] | IC50 [2] | IC50 [3] | Km (purified protein; [5]) | kcat (purified protein; [5]) | kcat/Km (purified protein; [5]) | Km [4] | kcat [4] | kcat/Km [4] | Km (purified protein) | kcat (purified protein) | kcat/Km (purified protein) |
| --- | --- | --- | --- | --- | --- | --- | --- | --- | --- | --- | --- | --- |
| NCCCC[C@H](N)C(=O)O [lysine] | 1000 ± 140 µM | 2000 ± 680 µM | 3200 ± 610 µM |  |  |  |  |  |  |  |  |  |
| B1 |  |  |  | 4600 ± 1260 µM | 0.287 s⁻¹ | 62.5 M⁻¹ s⁻¹ | 24.2 ± 4.21 µM | 0.269 ± 0.014 s⁻¹ | 11100 M⁻¹ s⁻¹ |  |  |  |
| B2 |  |  |  |  |  |  | 22.8 ± 4.88 µM | 0.373 ± 0.023 s⁻¹ | 16400 M⁻¹ s⁻¹ | 1990 ± 450 µM | 0.483 s⁻¹ | 243 M⁻¹ s⁻¹ |
| B3 |  |  |  |  |  |  | 16.1 ± 1.62 µM | 0.241 ± 0.0065 s⁻¹ | 14900 M⁻¹ s⁻¹ | 3110 ± 530 µM | 0.468 s⁻¹ | 150 M⁻¹ s⁻¹ |
| B4 |  |  |  |  |  |  |  |  |  | 9500 ± 1990 µM | 0.436 s⁻¹ | 46 M⁻¹ s⁻¹ |
